Reference: article PMC2132652 (The Journal of Cell Biology, 1997)

Target: the molecule itself
Test: cross-linking

B1: furin-HA (mouse furin tagged with the HA epitope), expressed stably in RBL cells (enzyme, UniProt P23188 108-793, looked up)
chain: DVYQEPTDPKFPQQWYLSGVTQRDLNVKEAWAQGFTGHGIVVSILDDGIEKNHPDLAGNYDPGASFDVNDQDPDPQPRYTQMNDNRHGTRCAGEVAAVANNGVCGVGVAYNARIGGVRMLDGEVTDAVEARSLGLNPNHIHIYSASWGPEDDGKTVDGPARLAEEAFFRGVSQGRGGLGSIFVWASGNGGREHDSCNCDGYTNSIYTLSISSATQFGNVPWYSEACSSTLATTYSSGNQNEKQIVTTDLRQKCTESHTGTSASAPLAAGIIALTLEANKNLTWRDMQHLVVQTSKPAHLNADDWATNGVGRKVSHSYGYGLLDAGAMVALAQNWTTVAPQRKCIVEILVEPKDIGKRLEVRKAVTACLGEPNHITRLEHVQARLTLSYNRRGDLAIHLISPMGTRSTLLAARPHDYSADGFNDWAFMTTHSWDEDPAGEWVLEIENTSEANNYGTLTKFTLVLYGTAPEGLSTPPESSGCKTLTSSQACVVCEEGYSLHQKSCVQHCPPGFIPQVLDTHYSTENDVEIIRASVCTPCHASCATCQGPAPTDCLSCPSHASLDPVEQTCSRQSQSSRESRPQQQPPALRPEVEMEPRLQAGLASHLPEVLAGLSCLIIVLIFGIVFLFLHRCSGFSFRGVKVYTMDRGLISYKGLPPEAWQEECPSDSEEDEGRGERTAFIKDQSAL
  stoichiometry N: 2

B2: furin-FLAG (mouse furin tagged with the FLAG epitope), expressed stably in RBL cells (enzyme)
chain: B1 chain
  stoichiometry N: 2
